# In patent US20240226118A1 (US Dept. of Health and Human Services, published 2024):
# Target: T1, ATP1A1 genetically fused to yellow fluorescent protein (YFP) tag (human, UniProt P05023 1-1023)
# T1 construct: Stood in lysates of RSV-infected H1299 ATP1A1-YFP cells and was pulled down with YFP-specific antibodies; The other subunits of the Na+,K+-ATPase complex may have been present; also called ATP1A1-YFP; ATPase Na+/K+ transporting subunit alpha 1; not shown: yellow fluorescent protein (YFP) tag
# Experiment: co-immunoprecipitation
binder,measurement,value
"RSV attachment (G) glycoprotein (other, Viral protein in lysates of RSV-infected cells; also called RSV G) MSKNKDQRTAKTLERTWDTLNHLLFISSCLYKLNLKSVAQITLSILAMIISTSLIIAAIIFIASANHKVTPTTAIIQDATSQIKNTTPTYLTQNPQLGISPSNPSEITSQITTILASTTPGVKSTLQSTTVKTKNTTTTQTQPSKPTTKQRQNKPPSKPNNDFHFEVFNFVPCSICSNNPTCWAICKRIPNKKPGKKTTTKPTKKPTLKTTKKDPKPQTTKSKEVPTTKPTEEPTINTTKTNIITTLLTSNTTGNPELTSQMETFHSTSSEGNPSPSQVSTTSEYPSQPSSPPNTPRQ",binding result,no binding
